Results taken from the nanobody polyreactivity screen of Harvey et al. (2022).

Experiment: yeast display, Sf9 membrane polyspecificity reagent, FACS + sequencing; frameworks hold sequencing errors
Procedure, shortened: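 Galactose-induced (36–48 hours) yeast carrying a synthetic nanobody display library were exposed to 10% biotinylated, detergent-solubilized Sf9 membrane reagent at 4 °C for 1 hour. FACS followed streptavidin microbead enrichment, using low and high (top ~1%) gates for expression (anti-HA) and reagent binding (streptavidin). Colony PCR, MiSeq 2 × 250 sequencing and CDR-length filtering followed. Labels for polyreactivity reflect the gate of origin.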

## QVQLVESGGGLVQAGGSLRLSCAASGSIFRTNAMGWYRQAPGKERELVASISRRGGSTYYADSVKGRFTISRDNAKNTVYLQMNSLKPEDTAVYYCAAVGYYSNTLHPWWDMYYWGQGTQVTVSS
  polyreactivity (PSR sort gate): high polyreactivity

## QVQLVQSRGGLVQAGGSLRISCAASGRIFNPNAMRWDRQAPVKQRELVAAITRGGSTNYADSVKGRLTISRDNAKNTVYLQMISLQPEVSAVLYCAADFKTWYCDFDYCGQGTQVTVSS
  polyreactivity (PSR sort gate): high polyreactivity

## QVQLVESGVGLVQAGGSLRLSFASSGRIFPTNAMGSYSQAPRKEREFVPAITWRGGSTYYADSVKGRFTISRDNAKNTVYLQINSLKPEDTAVYYCAATGHIVFFRAYDYGYWGQGTQVTVSS
  polyreactivity (PSR sort gate): low polyreactivity

## QVQLVESGGGLVQAGGSLRLSCAASGSIFSFYAMGWYRQAPGKEREFVAAITISDDSTYYADTVKGRFTISRDNAKNTVYLQMNSLNPEDTAVYYCNDRYLSWYFKYLYDYWGQGTQVTVSS
  polyreactivity (PSR sort gate): low polyreactivity

## QVQLVESGGGLVQAGGSLRLSCAASGRSFSKYAMGWYRQAPGKERDLVAGISRSGGSTYYADSVKGRFTISRDNAKNSVYLQMNSLKPEDTAVYYGAAVRRDYDDVYTEYWGQGTQVNVSS
  polyreactivity (PSR sort gate): high polyreactivity

## QVQLVESGGGIVQAGGSLRLSCAASGSTVVIYTMGWSRQAAGKEREFVASLSVSGGSTYYADSVKGRFTISRDYAKKTVYLQMNSLKPEDTAVYYCAAGYPYYYWTPYYYWGQGTQVTVSS
  polyreactivity (PSR sort gate): high polyreactivity

## QVQLVESGGGLVQAGGSLRLSCAASGSSFTWYAMGWYRQAPGKERELVAAITRGGSTYADSVKGRFTISRDNAKNTVYLQMNSLKPEDTAVYYCNAVYGVYDFNYWGQGTQVTVSS
  polyreactivity (PSR sort gate): low polyreactivity

## QVQLVESGGGLVQAGGSLRLSCAASGLTFAYYAMGWYRQAPGKERELVAAITSSGTSTYYADSVKGRFTISRDNAKNTVYLQMNSQKPEDTAVYYCNARVYGYRYTYRMDYWGQGTQVTVSS
  polyreactivity (PSR sort gate): high polyreactivity

## QVQLVESGGGLVQAGGSLRLSCAASGLIFRRYVMGWYRQAPGKERELVAAITSRGTRTYYADSVKGRFTISRDNAKNTVYLQMNSLKPEDTAVYYCAADGGISAGANSGYDYWGQGTQVTVSS
  polyreactivity (PSR sort gate): high polyreactivity

## QVQLVESGGGLVQAGGSLRLSCAASGSIFYAYAMGWYRQAPGKEREFVAVISYSGGSTYYADSVKGRFTISRDNAKNTVYLQMNSLKPEDTAVYYCAARYRRPYSYYYWGQGTQVTVSS
  polyreactivity (PSR sort gate): high polyreactivity

## QVQLVESGGGLVQAGGSLRLSCAASGSTLGSNAMGWYRQAPGKERELVAAITWSGGTTYYADSVKGRFTISRDNAKNTVYLQMISLKPEDTAVYYCATGQSVIYRYEYWGQGTKVTVSS
  polyreactivity (PSR sort gate): low polyreactivity

## QVQLVESGGGLGQAGGSLRLSCADSGRTFYKYAMGWYRQSPGKERDLVAAISGSGGSTFYADSVKGRFTISRDNAKNTVYLQMNSLKPEDTAVYYCAKYLRPRIGYRYYYWVQGTQVTVSS
  polyreactivity (PSR sort gate): high polyreactivity

## QVQLVESGGGLVQAGGSLRLICAATGSTLVSNAMGWYRKDPGKERELVAAISTSGGSTYYADSVKGRFTISRDNAKNTVYLQMNSLKPEDTAVYYCAAPYAGWGDGGDYWGQGTQVTVSS
  polyreactivity (PSR sort gate): low polyreactivity

## QVQLVESGGGLVQAGGSLRLSCAASGSTFSRYAMGWYRQAPGKERELVAAISWRGGRTYYADSVKGRFTISRDNAKNTVYLQMNSLKPADTAVYYCNAVSYFTSQRYDYWGQGTQVTVSS
  polyreactivity (PSR sort gate): high polyreactivity

## QVQLVDSGGGLLQAGGSLRLSCAASGNIFGRYAMGWYRQAPGKEREFVATITYSGGSTYYADSVKGRFTISRDNAKNTVYLQMNSLKPEDTAVYYCAARVGRPSLVAAKYDYWGQGTQVTVSS
  polyreactivity (PSR sort gate): high polyreactivity

## QVQLVESGGGLVQAGGSLRLSCAASRRTFIANAMGWYRQAPGNGREWVAVITLNGGSTYYADSVKRRFTLSRDNAKNTVYLQMNSLKPEDTAVYYCAADVYWDYYWGQGTQVTVSS
  polyreactivity (PSR sort gate): low polyreactivity

## QVQHVESGGGLVQAGGSLRLSCAASGRIFYNYAMGWYRQAPGKEREFVADIDFNGGSTYYADSGKGRFTISRDNAKTTVYLQMNSLKPDDTAVYYSAAEQDDARYNAWWIGPMYSWGQGTQVTVSS
  polyreactivity (PSR sort gate): low polyreactivity

## QVQLEESGGGLVQAGGSLRLSCAASGRTLGGYAMGWYRQAPGKERELVASITARGGSTYYADSVKGRFTISRDNAKNTVYLQMNSLKPEDTAVYYCAARSGYYRGGFYYWGQGTQVTVSS
  polyreactivity (PSR sort gate): high polyreactivity

## QVQLVESGGGLVQAGGSLRLSCAASGRTFWANAMGWYRQAPGKERELVAAINYSGGRTYYADSVKGRFTISRDNAKNTVYLQMNSLKPEDTAVYYCNVVHGGAISDYWGQGTQVTVSS
  polyreactivity (PSR sort gate): high polyreactivity

## QVQLVESGGGLVQAGGSLRLSCAASGSTFIGYDMGWYRQAPGQERELVAAISYSDGTYYADSVKGRFTISRDNAKNTVYLQMNSLKPEDTAVYYCATSYRDMGSHVGYWGQGTQLTVSS
  polyreactivity (PSR sort gate): low polyreactivity

## QVQLVESGGGLVQAGGSLRLSCAASGNIFYVYAMGWYRQAPGKEREFVAAIRGSGGSTYYADSVKGRFTISRDNAKNTVYLQMNSLIQEDTAVYYCDAVAWEGSGSEMYSWGQGTQVTVSS
  polyreactivity (PSR sort gate): low polyreactivity

## QVQLVESGGGLVPSGGSLRLSCAASGRIFTSNAMGWYRQAPGKERELVAAISKSGGRTYYADSVKGRFTISRDNAKNTVYLQMNSLKPEETAVYYFAKDNFWGQGTQVTLSS
  polyreactivity (PSR sort gate): high polyreactivity

## QVQLVESGGGLVQAGGSLRLSCAASGRIFYFYVMGWYRQAPGKEREFVAAISQSGGSTYYADSVKGRFTISRDNAKNTVYLQMNSLKPEDTAVYYCAADLKAWGRYYYWGQGTQVTVSS
  polyreactivity (PSR sort gate): low polyreactivity

## QVQLVESGGGLVQAGGTLRLSCAASGFIFAGYAMAWYRHAPGKERELVAASSWDGGSTYFADSVKGRFTISRDNAKHTVYLQMNSLIPEDTAGYYCAAKYFRHGPATYDYWGQGTQVTVSS
  polyreactivity (PSR sort gate): low polyreactivity

## QVQLVESGGGLVQAGGSLRLSCAASGRIFSFYAMGWYRQAPGKERELVATISKRAGSTYYADSVKGRFTISRDNAKNTVYLQMNSLKPEDTEVYYCYAYKRGYLYRYNYWGQGTQVTVSS
  polyreactivity (PSR sort gate): high polyreactivity

## QVHLVESAAGFVQAGGSLRLSGAASGFILWYYTMGWYRQAPGKERELVAVIDWSGDSTYADSVKGRFTISLDNAKNSVYLQMNSLIPVDTAVYYWNADYFVVWARLEFNYWGQGTQVTVSS
  polyreactivity (PSR sort gate): low polyreactivity

## QVQLVESGVGLVQAGGSRRLSCAASGRTFFDNVMGWYRQAPGKERELVAAIRSAGTTYYADSVKGRFTISRDNAKNTVYLQMNRLKPEDTAVYYCAATNRYYWSYFYQAKYGYWGQGTQVTVSS
  polyreactivity (PSR sort gate): low polyreactivity

## QVQLVESGGGLVQAGGRLRLSCAASGIIFTVYAMGWYRQAPGKERELVAAITSSGGRTYYADSVKGRFTISRDNAKNTVYLHMNSLKPEDTAVYYCAARLPGYVRKYDYWGQGTQVTVSS
  polyreactivity (PSR sort gate): high polyreactivity

## QVQLVESGGRLVQAGGSIRLSCAASGSTLNVNAMGGYRQAPGKERELVAAITSGGSTYYADSVKGRFTISRDNAKNTVYLQMNSLKPEDTAVYYCNKRRSWRPTYPIGGSGFYYWGQGTQVTVSS
  polyreactivity (PSR sort gate): low polyreactivity

## QVQLEESGGGLVQAGGSLRLSCAASGFTFELYAMGWYRQAPGKVRELVAAISYSGGSTYYADSVKGRFTISRDNAKNTVYLQMNSLKPEDTAVYYCNAVYWPYSGPVYTIVDYWGQGTQVTVSS
  polyreactivity (PSR sort gate): low polyreactivity

## QVQLEESGGGLVQAGGSLRLSSAASGRIYTKNAMGRYRHAPGKERELVAAITTSGGSTYYADSVKGRFTISRDNAKNSVYLQMKSLKPEDTAVYYCAAERYNGYDYWGQGTQVSVSS
  polyreactivity (PSR sort gate): high polyreactivity

## QVQLVESGGGLVQAGGILRLSCAASGGIFADYAMGWYRQAPGKERELVADISARGGSTYYADSVKGRFTISRDNAKNTVYLQMNSLKPEDTAVYYCAADALGYDYYYWGQGTQVTVSS
  polyreactivity (PSR sort gate): low polyreactivity
